How the values were obtained:
[1] = biological target: T1, hTRF2 dimerization domain (amino acid 45 to amino acid 246), LexA and GAD fusion proteins (human, UniProt Q15554 87-288); assay: yeast 2-hybrid, b-galactosidase activity
T1 construct: Built both as a LexA and as a GAD fusion; also called dimerization domain of hTRF2; not shown: two-hybrid fusion partner, LexA or GAD depending on the construct (vectors pBTM116 and pACT2)
T1 sequence: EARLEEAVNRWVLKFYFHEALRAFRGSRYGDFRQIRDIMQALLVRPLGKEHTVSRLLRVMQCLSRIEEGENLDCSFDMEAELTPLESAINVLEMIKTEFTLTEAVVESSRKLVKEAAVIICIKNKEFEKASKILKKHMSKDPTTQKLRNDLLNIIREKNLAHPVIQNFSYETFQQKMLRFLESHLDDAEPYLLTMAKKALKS
Source text: (§1) FIG. 12: TRF2 interacts with TRF2 but not with TRF1. […] Values represent an average of three to nine independent transformants. FIG. 12B depicts in vitro translated ³⁵S-methionine labelled TRF1 and TRF2 proteins with or without an N-terminal FLAG tag (indicated above the lanes) were immunoprecipitated using the M2 anti-FLAG antibodies and analyzed by autoradiography.
Next the yeast 2-hybrid assay was used to determine whether the dimerization domains of TRF1 and TRF2 can interact. In a large number of trials, no convincing interactions between these proteins in two settings were detected (FIG. 12A). No activation occurred when the dimerization domain of TRF2 was probed for interactions with full length TRF1. In addition, no significant interactions were observed between fusion proteins containing the isolated TRF1 and TRF2 dimerization domains. The weak b-galactosidase activity detected with these proteins is probably due to the inherent slight transactivation activity of the TRF1 dimerization domain (FIG. 12A) which has been noted previously [Bianchi et al., supra, (1997)].

untagged mTRF2 = biological target: T2, untagged mTRF2 (mouse, UniProt O35144 46-541, limits assumed); assay: co-immunoprecipitation of in vitro translated 35S-labelled proteins with M2 anti-FLAG antibody
T2 construct: In vitro translated and 35S-methionine labelled; also called mouse TRF2
T2 sequence: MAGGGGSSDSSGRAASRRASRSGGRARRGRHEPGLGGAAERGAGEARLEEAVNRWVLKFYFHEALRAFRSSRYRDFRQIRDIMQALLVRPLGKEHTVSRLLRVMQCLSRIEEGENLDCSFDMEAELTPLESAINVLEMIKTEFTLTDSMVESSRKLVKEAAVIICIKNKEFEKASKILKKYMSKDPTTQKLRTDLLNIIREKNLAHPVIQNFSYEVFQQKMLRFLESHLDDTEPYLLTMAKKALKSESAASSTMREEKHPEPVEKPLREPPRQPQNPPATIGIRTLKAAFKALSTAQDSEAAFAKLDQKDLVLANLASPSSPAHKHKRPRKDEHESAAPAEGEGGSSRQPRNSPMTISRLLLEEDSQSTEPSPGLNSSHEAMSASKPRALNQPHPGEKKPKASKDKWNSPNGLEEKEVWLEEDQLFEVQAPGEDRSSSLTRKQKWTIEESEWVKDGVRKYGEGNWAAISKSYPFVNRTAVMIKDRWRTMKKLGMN
Source text: as §1
Co-immunoprecipitation experiments. The human and mouse TRF1 constructs used were previously described [Chong et al., Science, 270:1663-1667 (1995); Broccoli et al., Hum. Mol. Genetics, 6:69-76 (1997); Bianchi et al., supra (1997)]. The FLAG-tagged mTRF2 and untagged mTRF2 were translated from cDNAs described above. ³⁵S-methionine labelled proteins [Chong et al., Science, 270:1663-1667 (1995); Broccoli et al., Hum. Mol. Genetics, 6:69-76 (1997); Bianchi et al., supra, (1997)] were immunoprecipitated using the M2 anti-FLAG antibody in buffer D (20 mM Hepes-KOH pH 7.9, 100 mM KCl, 20% glycerol, 0.2 mM EDTA, 0.2 mM EGTA, 0.1 % NP40, 0.1 % Triton-X-100, 0.5 mM DTT, 0.5 mM PMSF) followed by four washes in buffer D with detergents and two washes in buffer D without detergent. Pellets were suspended in SDS/PAGE loading buffer and resolved on a 9% SDS-polyacrylamide gel.

FLAG-tagged mTRF2ΔN-49 = biological target: T3, FLAG-tagged mTRF2ΔN-49 (mouse, UniProt O35144 94-541); assay: gel-shift assay on extracts of transfected HeLa cells; level of the hTRF1 homodimer complex unaltered
T3 construct: also called mTRF2 DN-49; deletion mutant mTRF2ΔN-49
T3 sequence: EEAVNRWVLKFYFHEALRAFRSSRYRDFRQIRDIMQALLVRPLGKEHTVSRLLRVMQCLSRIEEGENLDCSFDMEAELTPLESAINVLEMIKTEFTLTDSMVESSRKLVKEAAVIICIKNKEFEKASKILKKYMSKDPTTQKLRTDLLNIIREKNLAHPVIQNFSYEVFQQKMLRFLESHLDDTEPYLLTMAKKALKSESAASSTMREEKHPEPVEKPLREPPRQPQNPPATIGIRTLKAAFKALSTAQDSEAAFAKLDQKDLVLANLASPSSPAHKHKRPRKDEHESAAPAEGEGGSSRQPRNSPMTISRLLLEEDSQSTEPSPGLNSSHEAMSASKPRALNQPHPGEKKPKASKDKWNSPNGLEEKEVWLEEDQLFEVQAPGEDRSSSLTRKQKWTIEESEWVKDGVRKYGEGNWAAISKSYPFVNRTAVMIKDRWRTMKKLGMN
Source text: This new activity was present in excess over the endogenous hTRF1 activity and could be super-shifted with the FLAG antibody (FIG. 10B, lane 4). The mTRF2ΔN-49 mutant protein was also found to localize to telomeric loci in transfected cells (see below). […] Acids Res., 24:1294-303 (1996)].
Absence of heterodimer formation was further corroborated by co-immunoprecipitation of in vitro translation products (FIG. 12B). […] The lack of heterodimerization is also consistent with the gel-shift assays on extracts from cells over-expressing mTRF2ΔN-49 (FIG. 10B). […] In similar experiments executed with FLAG-tagged hTRF 1, heterodimerization between the endogenous TRF1 and the transfected protein is consistently detected.

B1: hTRF1 dimerization domain, LexA and GAD fusion proteins (other)
chain: LVAEAEAVAAGWMLDFLCLSLCRAFRDGRSEDFRRTRNSAEAIIHGLSSLTACQLRTIYICQFLTRIAAGKTLDAQFENDERITPLESALMIWGSIEKEHDKLHEEIQNLIKIQAIAVCMENGNFKEAEEVFERIFGDPNSHMPFKSKLLMIISQKDTFHSFFQHFSYNHMMEKIKSYVNYVLSEKSSTFLMKAAAKV
notes: also called isolated TRF1 dimerization domain; homodimerization domain of TRF1; not shown: two-hybrid fusion partner, LexA or GAD
binding result [1]: no binding

B2: FLAG-mTRF1 (mouse TRF) (other, UniProt P70371 2-421, looked up)
chain: AETVSSAARDAPSREGWTDSDSPEQEEVGDDAELLQCQLQLGTPREMENAELVAEVEAVAAGWMLDFLCLSLCRAFRDGRSEDFRRTRDSAEAIIHGLHRLTAYQLKTVYICQFLTRVASGKALDAQFEVDERITPLESALMIWNSIEKEHDKLHDEIKNLIKIQAVAVCMEIGSFKEAEEVFERIFGDPEFYTPLERKLLKIISQKDVFHSLFQHFSYSCMMEKIQSYVGDVLSEKSSTFLMKAATKVVENEKARTQASKDRPDATNTGMDTEVGLNKEKSVNGQQSTETEPLVDTVSSIRSHKNALSQLKHRRAPSDFSRNEARTGTLQCETTMERNRRTSGRNRLCVSENQPDTDDKSGRRKRQTWLWEEDRILKCGVKKYGEGNWAKILSHYKFNNRTSVMLKDRWRTMKRLKLIS
notes: The co-IP construct is 'previously described'; also called FLAG tagged mouse TRF; not shown: FLAG tag
binding result (untagged mTRF2): no binding

B3: hTRF1 (endogenous, HeLa cells) (other)
chain: AEDVSSAAPSPRRCADGRDADPTEEQMAETERNDEEQFECQELLECQVQVGAPEEEEEEEEDAGLVAEAEAVAAGWMLDFLCLSLCRAFRDGRSEDFRRTRNSAEAIIHGLSSLTACQLRTIYICQFLTRIAAGKTLDAQFENDERITPLESALMIWGSIEKEHDKLHEEIQNLIKIQAIAVCMENGNFKEAEEVFERIFGDPNSHMPFKSKLLMIISQKDTFHSFFQHFSYNHMMEKIKSYVNYVLSEKSSTFLMKAAAKVVESKRTRTITSQDKPSGNDVEMETEANLDTRKSVSDKQSAVTESSEGTVSLLRSHKNLFLSKLQHGTQQQDLNKKERRVGTPQSTKKKKESRRATESRIPVSKSQPVTPEKHRARKRQAWLWEEDKNLRSGVRKYGEGNWSKILLHYKFNNRTSVMLKDRWRTMKKLKLISSDSED
notes: also called endogenous TRF1; human TRF1
binding result (FLAG-tagged mTRF2ΔN-49): no binding
